Experimental data taken from the supplement of paper PMC9732359.
± gives the uncertainty stated by the source.

Assay: protein stability index of a GFP-peptide fusion (yeast GPS) (PSI 1-4); higher = more stable; sorted into four equal gates, so the index is relative within each strain
How it was run: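 Mid-log yeast cultures in leucine-free medium, carrying a pooled plasmid library, were sorted into four equal gates by their GFP/Cherry fluorescence ratio. Each plasmid expressed Cherry along with GFP fused upstream of a tiled 17-residue yeast protein peptide. Plasmids recovered from each gate were PCR-amplified and Illumina-sequenced, with reads assigned to strains by barcodes. The protein stability index was obtained by summing each gate's read frequency weighted by its gate number.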

Sequence	protein stability index (doa10∆)	protein stability index (pdr5∆)	protein stability index (san1∆)	protein stability index (ubr1∆)
IIPIVDYAQLDHLVSSI [ARP9]	2.13 ± 0.05	2.48 ± 0.051	2.34 ± 0.053	2.38 ± 0.039
RSPLVTPMDESSYDLLF [SRP72]	2.71 ± 0.13	3.06 ± 0.1	3.29 ± 0.12	3.2 ± 0.08
GNLYSKVMNNSFKLCTL [YML103C/NUP188]	3.21 ± 0.21	2.8 ± 0.15	2.87 ± 0.14	3.07 ± 0.22
RGRNDTLERVHLSYCSN [GRR1]	3.01 ± 0.055	3.2 ± 0.068	2.69 ± 0.1	2.98 ± 0.046
PRLDDVVVDTVECAQHC [SMC4]	3.22 ± 0.1	3.31 ± 0.13	3.17 ± 0.092	2.75 ± 0.13
ILHTKESSNEAKKTIQN [SIR4]	2.74 ± 0.056	2.21 ± 0.058	2.73 ± 0.069	2.73 ± 0.054
SLNLGIGIVEIAHENEQ [SRB8]	1.43 ± 0.11	2.07 ± 0.084	2.52 ± 0.11	2.08 ± 0.087
HLLVKQGDGLLTKLQKY [RPN7]	2.97 ± 0.13	2.44 ± 0.1	3.19 ± 0.12	3 ± 0.16
LLGARHYTPAVDLWSVG [SSN3]	1.29 ± 0.19	1.15 ± 0.19	–	–
IHIDALELAGMDALYEK [SIR3]	2.97 ± 0.1	3.04 ± 0.098	2.71 ± 0.07	2.93 ± 0.079
DICLKLNLDSEQTVEYM [RPN3]	3.37 ± 0.23	3.28 ± 0.2	2.97 ± 0.24	3.07 ± 0.092
IIDGPKALILAPTRELV [PRP28]	1.59 ± 0.062	2.32 ± 0.053	1.89 ± 0.1	1.68 ± 0.052
GWLGALTMANLPSWSLG [ARP7]	3.07 ± 0.078	3.08 ± 0.062	2.68 ± 0.083	2.92 ± 0.057
HYKQQIAVLIELLEERF [YCS4]	2.01 ± 0.07	2.12 ± 0.065	2.48 ± 0.1	2.34 ± 0.072
QKGTIGITYRREDMPFT [RPB2]	3.01 ± 0.1	2.68 ± 0.08	2.8 ± 0.08	2.9 ± 0.069
TRYMFQRDFRKHGAVHM [RPL21B]	2.22 ± 0.099	2.14 ± 0.06	1.79 ± 0.12	1.99 ± 0.077
AQAAQAAQAQAQAQAQA [GAL11]	2.53 ± 0.041	2.87 ± 0.046	2.71 ± 0.034	2.82 ± 0.044
TVKTSDDYVLRIFAIAF [RPS1A]	2.534 ± 0.02	2.308 ± 0.018	2.453 ± 0.023	2.55 ± 0.016
PLLEAKKLVWPLHLIFA [SSN2]	1.61 ± 0.083	1.29 ± 0.059	1.24 ± 0.11	1.19 ± 0.06
LITTNSVEEVILERAYK [SNF2]	2.37 ± 0.092	1.85 ± 0.063	2.18 ± 0.09	1.95 ± 0.031
LDNFETKTEALLSDVVS [YJL041W/NSP1]	2.4 ± 0.054	2.72 ± 0.069	2.35 ± 0.063	2.12 ± 0.059
YGDRMKLAKNLQIGDVV [RPO31]	2.94 ± 0.13	3.49 ± 0.21	3.34 ± 0.1	3.57 ± 0.21
EIKGASETPLQKTVNLK [RPN4]	3 ± 0.12	3.42 ± 0.13	3.05 ± 0.1	3.14 ± 0.056
KPQFENHVKQFYERLDK [MED11]	2.87 ± 0.12	2.46 ± 0.19	2.57 ± 0.088	2.17 ± 0.17
ADLDSLIIRNDSLSGAV [RPT3]	3.12 ± 0.077	3.06 ± 0.058	2.82 ± 0.049	3 ± 0.049
LMYQIKKECALLISYGV [SRB4]	1.9 ± 0.12	3.09 ± 0.16	2.12 ± 0.19	1.93 ± 0.15
IDEVDSIATKRFDAQTG [RPT3]	3.12 ± 0.12	3.18 ± 0.076	2.93 ± 0.075	3.38 ± 0.1
